The supplement of paper PMC9112550, “Optimization of the antimicrobial peptide Bac7 by deep mutational scanning” (BMC Biology, 2022)

Tested on: Escherichia coli TOP10
Assay: shrunken log2 fold change of peptide-encoding DNA abundance (4.5 h post-induction vs induction); higher = less antimicrobial activity (less host growth inhibition)
Conditions: time post-induction: 4.5 h; library: site-saturation at positions 5, 18, 19, 20
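Further: peptides expressed intracellularly from a pBAD plasmid library in pooled LB shake-flask culture, induced with 0.3% L-arabinose, DNA abundance read by NGS, three biological replicates, DESeq2 with apeglm shrinkage.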

Sequence | shrunken log2 fold change
RRIRNRPPRLPRPRPRPRCDPRP | -0.203
RRIRSRPPRLPRPRPRPLFHPRP | -0.63
RRIRARPPRLPRPRPRPVGIPRP | -0.102
RRIRIRPPRLPRPRPRPSREPRP | -0.0977
RRIRGRPPRLPRPRPRPVPVPRP | 0.629
RRIRLRPPRLPRPRPRPVFPPRP | 0.263
RRIRRRPPRLPRPRPRPDLNPRP | 0.16
RRIRKRPPRLPRPRPRPTYTPRP | 0.475
RRIRVRPPRLPRPRPRPTMYPRP | -0.245
RRIRSRPPRLPRPRPRPNGPPRP | -0.42
RRIRCRPPRLPRPRPRPWQFPRP | -0.0402
RRIRARPPRLPRPRPRPETPPRP | 1.65
RRIRVRPPRLPRPRPRPWNVPRP | -0.0441
RRIRERPPRLPRPRPRPLREPRP | 0.385
RRIRERPPRLPRPRPRPTVRPRP | -0.00266
RRIRSRPPRLPRPRPRPEGAPRP | 1.95
RRIRCRPPRLPRPRPRPLKEPRP | 0.244
RRIRNRPPRLPRPRPRPWYLPRP | -0.0197
RRIRLRPPRLPRPRPRPYLHPRP | -0.447
RRIRMRPPRLPRPRPRPESLPRP | 1.69
RRIRGRPPRLPRPRPRPMCMPRP | 0.509
RRIRERPPRLPRPRPRPCVRPRP | -0.447
RRIRPRPPRLPRPRPRPVPSPRP | 0.448
RRIRYRPPRLPRPRPRPCLWPRP | -0.481
RRIRLRPPRLPRPRPRPCCSPRP | -0.144

Sequence | shrunken log2 fold change
RRIRARPPRLPRPRPRPTERPRP | 0.502
RRIRPRPPRLPRPRPRPHHMPRP | -0.778
RRIRSRPPRLPRPRPRPDGMPRP | -0.113
RRIRSRPPRLPRPRPRPCWPPRP | 0.42
RRIRFRPPRLPRPRPRPHDYPRP | -0.323
RRIRYRPPRLPRPRPRPQPMPRP | -0.159
RRIRSRPPRLPRPRPRPLEWPRP | 0.14
RRIRQRPPRLPRPRPRPFFNPRP | -0.438
RRIRVRPPRLPRPRPRPHRWPRP | 0.0461
RRIRERPPRLPRPRPRPVLGPRP | -0.101
RRIRCRPPRLPRPRPRPVGQPRP | 0.0533
RRIRTRPPRLPRPRPRPRTNPRP | -0.192
RRIRERPPRLPRPRPRPPAAPRP | 0.252
RRIRRRPPRLPRPRPRPPPFPRP | 0.938
RRIRARPPRLPRPRPRPVWPPRP | 0.623
RRIRMRPPRLPRPRPRPVQVPRP | -0.00884
RRIRNRPPRLPRPRPRPNLDPRP | -0.136
RRIRWRPPRLPRPRPRPEYKPRP | 0.472
RRIRERPPRLPRPRPRPDPAPRP | 2.64
RRIRHRPPRLPRPRPRPQALPRP | -0.278
RRIRSRPPRLPRPRPRPLCRPRP | -0.0794
RRIRFRPPRLPRPRPRPGCTPRP | -0.116
RRIRARPPRLPRPRPRPHIYPRP | -0.805
RRIRCRPPRLPRPRPRPDAIPRP | -0.0147
RRIRQRPPRLPRPRPRPFHIPRP | -1.55

Sequence | shrunken log2 fold change
RRIRNRPPRLPRPRPRPWFVPRP | -0.429
RRIRVRPPRLPRPRPRPNPGPRP | -0.131
RRIRYRPPRLPRPRPRPSGQPRP | -0.000925
RRIRRRPPRLPRPRPRPDEEPRP | 0.526
RRIRCRPPRLPRPRPRPVEDPRP | -0.0221
RRIRIRPPRLPRPRPRPPECPRP | -0.17
RRIRIRPPRLPRPRPRPYGDPRP | 0.0112
RRIRRRPPRLPRPRPRPINLPRP | -0.00491
RRIRRRPPRLPRPRPRPQLLPRP | 0.537
RRIRQRPPRLPRPRPRPGAQPRP | 0.528
RRIRWRPPRLPRPRPRPNAVPRP | 0.259
RRIRSRPPRLPRPRPRPRLNPRP | 0.15
RRIRNRPPRLPRPRPRPMYKPRP | 0.0573
RRIRNRPPRLPRPRPRPGGYPRP | -0.0538
RRIRYRPPRLPRPRPRPNNWPRP | -0.398
RRIRARPPRLPRPRPRPSYIPRP | -0.647
RRIRNRPPRLPRPRPRPKWAPRP | -0.0431
RRIRQRPPRLPRPRPRPPDLPRP | 0.404
RRIRRRPPRLPRPRPRPPCKPRP | 0.492
RRIRIRPPRLPRPRPRPVEPPRP | -0.115
RRIRSRPPRLPRPRPRPSFTPRP | -0.524
RRIRGRPPRLPRPRPRPPYKPRP | 0.18
RRIRIRPPRLPRPRPRPMNFPRP | -0.0453
RRIRVRPPRLPRPRPRPYWYPRP | -0.964
RRIRMRPPRLPRPRPRPMQHPRP | 0.579

Sequence | shrunken log2 fold change
RRIRPRPPRLPRPRPRPMHVPRP | 0.038
RRIRARPPRLPRPRPRPYHTPRP | -0.407
RRIRQRPPRLPRPRPRPLPPPRP | 1.09
RRIRVRPPRLPRPRPRPNIWPRP | -0.13
RRIRSRPPRLPRPRPRPMMKPRP | 1.75
RRIRVRPPRLPRPRPRPGGPPRP | 0.0704
RRIRIRPPRLPRPRPRPWSNPRP | -0.0121
RRIRQRPPRLPRPRPRPAPDPRP | 0.261
RRIRNRPPRLPRPRPRPKTCPRP | 0.0411
RRIRDRPPRLPRPRPRPAYQPRP | -0.381
RRIRGRPPRLPRPRPRPKSTPRP | 1.41
RRIRARPPRLPRPRPRPSEQPRP | 0.248
RRIRLRPPRLPRPRPRPEVFPRP | 0.0607
RRIRHRPPRLPRPRPRPGSFPRP | -0.176
RRIRQRPPRLPRPRPRPRWYPRP | -0.172
RRIRPRPPRLPRPRPRPKSCPRP | 0.0347
RRIRHRPPRLPRPRPRPRNRPRP | 0.672
RRIRGRPPRLPRPRPRPVECPRP | 0.289
RRIRARPPRLPRPRPRPKFTPRP | 0.00836
RRIRMRPPRLPRPRPRPKFDPRP | 0.217
RRIRMRPPRLPRPRPRPTPHPRP | 1.13
RRIRDRPPRLPRPRPRPMVWPRP | 0.851
RRIRNRPPRLPRPRPRPQPSPRP | 0.186
RRIRARPPRLPRPRPRPHTNPRP | -0.227
RRIRDRPPRLPRPRPRPKDHPRP | 0.0158

Sequence | shrunken log2 fold change
RRIRWRPPRLPRPRPRPQWKPRP | -0.17
RRIRARPPRLPRPRPRPHYNPRP | -0.467
RRIRARPPRLPRPRPRPGVAPRP | 1.05
RRIRRRPPRLPRPRPRPVHDPRP | -0.305
RRIRVRPPRLPRPRPRPMPAPRP | 0.149
RRIRKRPPRLPRPRPRPPDCPRP | 1.03
RRIRTRPPRLPRPRPRPQIGPRP | -0.0138
RRIRLRPPRLPRPRPRPPMHPRP | 0.363
RRIRERPPRLPRPRPRPHYCPRP | -0.0425
RRIRTRPPRLPRPRPRPLAAPRP | 0.363
RRIRERPPRLPRPRPRPIHSPRP | -1.52
RRIRGRPPRLPRPRPRPYAVPRP | 2.53
RRIRCRPPRLPRPRPRPNDAPRP | -0.12
RRIRFRPPRLPRPRPRPYSPPRP | -0.324
RRIRHRPPRLPRPRPRPQDCPRP | -0.01
RRIRCRPPRLPRPRPRPMNHPRP | -0.658
RRIRVRPPRLPRPRPRPLDYPRP | -0.244
RRIRVRPPRLPRPRPRPQCYPRP | -0.189
RRIRLRPPRLPRPRPRPNTLPRP | -0.136
RRIRLRPPRLPRPRPRPGDEPRP | 0.114
RRIRTRPPRLPRPRPRPFNGPRP | -0.142
RRIRHRPPRLPRPRPRPDWAPRP | -0.0995
RRIRVRPPRLPRPRPRPFSQPRP | -0.0697
RRIRVRPPRLPRPRPRPYYTPRP | -1.39
RRIRYRPPRLPRPRPRPHKRPRP | -0.163

Sequence | shrunken log2 fold change
RRIRARPPRLPRPRPRPGGAPRP | 0.76
RRIRVRPPRLPRPRPRPLFAPRP | 0.477
RRIRARPPRLPRPRPRPRWQPRP | 0.361
RRIRKRPPRLPRPRPRPVMSPRP | -0.123
RRIRNRPPRLPRPRPRPNIKPRP | -0.641
RRIRGRPPRLPRPRPRPEHPPRP | 0.281
RRIRERPPRLPRPRPRPDKVPRP | -0.121
RRIRNRPPRLPRPRPRPHQLPRP | -0.0583
RRIRCRPPRLPRPRPRPIEAPRP | -0.108
RRIRGRPPRLPRPRPRPDDLPRP | 0.0487
RRIRARPPRLPRPRPRPFMMPRP | -0.105
RRIRERPPRLPRPRPRPGIKPRP | -0.587
RRIRKRPPRLPRPRPRPCRTPRP | 0.0438
RRIRARPPRLPRPRPRPCAPPRP | 0.384
RRIRIRPPRLPRPRPRPGSYPRP | -0.277
RRIRARPPRLPRPRPRPTDGPRP | 0.0971
RRIRPRPPRLPRPRPRPSHMPRP | -0.466
RRIRPRPPRLPRPRPRPPARPRP | 0.748
RRIRIRPPRLPRPRPRPSDGPRP | -0.0648
RRIRMRPPRLPRPRPRPGPCPRP | 0.915
RRIRSRPPRLPRPRPRPGIDPRP | -0.0173
RRIRVRPPRLPRPRPRPELEPRP | 0.292
RRIRVRPPRLPRPRPRPPLFPRP | 0.256
RRIRIRPPRLPRPRPRPRVWPRP | 0.618
RRIRARPPRLPRPRPRPYAYPRP | 0.104
